The source of these data is patent US20220112288A1 (published 2022).

Usually Kd stands for the free concentration of one partner at which half of the binding sites on the other are occupied at equilibrium, for simple one-to-one binding. For orientation: koff means a measure of how fast the partners let go of each other. For orientation: kon means the rate constant with which the complex forms.

First the molecules themselves.
B1: 75110_08F20A (antibody, V domains shown)
VH: QVQLQESGPGLVKPSETLSLTCSVSGGSISTYYWSWIRQPAGKGLEWIGRICTTENTNYNPSLKSRVTMSIDSSKNQFSLKLSSVTAADTAVYYCARDLERLNYYGMDVWGQGATVTVSS
VL: DIQMTQSPSSLSASVGDRVTITCQASQDISKYLNWYQQKPGIAPKLLIYDASNLETGVPSRFSGSGSGTDFTFTISSLQPEDFATYYCQQYDSLPITFGQGTRLEIK
notes: Tested as antibody purified from AlivaMab Mouse Kappa hybridoma (human V regions, kappa light chain, mouse Fc captured by anti-mouse Fc sensors)
B2: 75110_08G08A (antibody, V domains shown)
VH: QVQLQESGPGLVKPSETLSLTCSVSGGSISTYYWSWIRQPAGKGLEWIGRICTTENTNYNPSLKSRVTMSIDSSKNQFSLKLSSVTAADTAVYYCARDLERLNYYGMDVWGQGATVTVSS
VL: DIQMTQSPSSLSASVGDRVTITCQASQDISNYLNWYQQKPGIAPKLLIYDASNLETGVPSRFSGSGSGTDFTFTISSLQPEDIATYYCQQYDSLPITFGQGTRLEIK
notes: as for B1
B3: 75110_07J02A (antibody, V domains shown)
VH: EVQLVESGGGLVQPGGSLRLSCAASGFTFSSYWMSWVRQAPGKGLEWVANIKEDGSEKYYVDSVKGRFTISRDNAKNSLYLQMNSLRAEDTAVYYCARDGSYSGYGMDVWGQGTTVTVSS
VL: AIQMTQSPSSLSASVGDRVTITCRASQGIRNDLGWYQQKPGKAPKLLIYAASSLQSGVPSRFSGRGSGTDFALTISSLQPEDFATYYCLLDYNYPYTFGQGTRLEIK
notes: Tested as antibody purified from AlivaMab Mouse Kappa hybridoma (human V regions, kappa light chain, mouse Fc captured by anti-mouse Fc sensors); also called 75110_07102A
B4: 75110_08A13A (antibody, V domains shown)
VH: EVQLVESGGGLVQPGGSLRLSCAASGFIFSSYWMSWVRQAPGKGLEWVANIKQDGSEKYYMDSVKGRFTISRDNAKNSLYLQMNSLRAEDTAVYYCARDNSYYYYGMDVWGQGTTVTVSS
VL: AIQMTQSPSSLSASVGDRVTITCRASQGIRDDLGWYQQKPGKAPKLLIFAASSLQSGVPSSFSGSGSGTDFTLTISSLQPEDFATYYCLHHYNYPYTFGQGTKLEIK
notes: as for B1
B5: 75110_10K21A (antibody, V domains shown)
VH: EVQLVESGGGLVQPGGSLRLSCAASGFTFSSYWMTWVRQAPGKGLEWVANIKQDGSEKYYVDSVKGRFTISRDNAKNSLYLQMNSLRAEDTAVYYCVRDRYDALDIWGQGTMVTVSS
VL: AIQMTQSPSSLSASVGDRVTITCRASQGIRNDLNWYQQKPGKAPKLLIYAASSLQSGVPSRFSGSGSGTDFTLTISSLQAEDFATYYCLKDYNYPYTFGQGTKLEIK
notes: as for B1
B6: 75110_07B16A (antibody, V domains shown)
VH: QVQLQQWGAGLLKPSETLSLTCAVYGGSFSGYYWSWIRQSPGKGLEWIGEINQSGSTNYNPSLKSRVTISVDTSKDQFSLKLSSVTAADTAVYYCARVINWFDSWGQGSLVTVSS
VL: DIQMTQSPSSVSASVGDRVTITCRASQGISSWLAWYQQKPGKAPKLLIYDASSFQSGVPSRFSGSGSGTDFTLTISSLQTDDFATYYCQQANSFPYTFGQGTKLEIK
notes: as for B1
B7: 75110_11D03A (antibody, V domains shown)
VH: EVQLVESGGGLVQPGGSLRLSCAASGFTFSSYWMSWVRQAPGKGLEWVANINQDGNEKYYVDSVKGRFTISRDNAKNSLFLQMNSLRAEDTAVYYCAREGGQWLALDYWGQGALVTVSS
VL: DIQMTQSPSSVSASVGDRVTITCRASQGISSWLAWYQQKPGKAPKFLISGASSLQSGVPSRFSGSGSGTDFTLTISSLQPEDFATYYCQQANSFPWTFGQGTKVEIK
notes: as for B1
B8: 75110_12K21A (antibody, V domains shown)
VH: QVQLQQWGAGLLKPSETLSLTCAVSGGSFSGYYWSWIRQPPGKGLEWIGEINHSGSTNCNPSLKSRVTISVDTSNNQFSLKLSSVTAADTAVYYCARVLNYFDYWGQGTLVTVSS
VL: DIQMTQSPSSVSASVGDRVTITCRASPDIANWLAWYQQKPGKAPELLIYAASSLQSGVPSRFSGSGSGTDFTLTISSLQPEDFATYFCQQANSFPLTFGGGTKVESK
notes: as for B1
B9: 75110_13C13A (antibody, V domains shown)
VH: QVQLQQWGAGLLKPSETLSLTCAVSGGSFSGYYWSWIRQPPGKGLEWIGEINHSGSTNCNPSLKSRVTISVDTSKNQFSLKLSSVTAADTAMYYCARVLNFFDYWGQGTLVTVSS
VL: DIQMTQTPSSVSASVGDRVTITCRASPGISNWLAWYQQKPGKAPELLIYAASSLQSGVPSRFSGSGSGTDFTLTISSLQPEDFATYFCQQANSFPLTFGGGTKVESK
notes: as for B1
B10: 75110_12H17A (antibody, V domains shown)
VH: EVQLVESGGGLVQPGGSLRLSCAASGFTFSDYWMSWVRQAPGKGLEWVANIKEDGNEKYYVDSVKGRFTISRDNAKNSLFLQMNSLRAEDTAVYYCAREGGQWLALDYWGQGALVTVSS
VL: DIQMTQSPSSVSASVGDRVTITCRASQGISSWLAWYQQKPGKAPKFLISGASSLQSGVPSRFTGSGSGTDFTLTISSLQPEDFATYYCQQANSFPWTFGQGTKVEIK
notes: as for B1
B11: 75110_12H19A (antibody, V domains shown)
VH: EVQLVESGGGLVQPGGSLRLSCAASGFTFSSYWMSWVRQAPGQGLEWVANINEDGNEKYHVDSVKGRLTISRDNAKNSLYLQMNSLRGVDTAVYFCAREGGQWLALDYWGQGALVTVSS
VL: DIQMTQSPSSVSASVGDRVSITCRASQGISSWLAWYQQKPGKAPKLLIYGASGLQSGVPSRFSGSGSGTDFTLTISSLQPEDFATYYCQQANSFPWTFGQGTKVEIK
notes: as for B1
B12: 75110_09N20A (antibody, V domains shown)
VH: EVQLVESGGGLVQPGGSLRLSCAASGFTFSSYWMSWVRQAPGKGLEWVANINEDGSEKYYVDSVKGRFTISRDNAKNSLYLQMNSLRAEDTAVYYCVREGGQWLALDYWGQGTLVTVSS
VL: DIQMTQSPSSVSASVGDRVTITCRASQGISSWLAWYQQKPGKAPKLLIYAASSLQSGVPSSFSGSGSGTDFTLTINSLQPEDFATYYCQQANSFPWTFGQGTKVAIK
notes: as for B1
B13: 75110_09G15A (antibody, V domains shown)
VH: EVQLVESGGGLVQPGGSLRLSCAASGFTFSDYWMSWVRQAPGKGLEWVANINQDGSEKYSVDSVKGRFTISRDNAKNSLYLQMNSLRAEDTAIFYCAREGGQWLALDYWGQGTLVTVSS
VL: DIQMTQSPSSVSASVGDRVTITCRASQGISSWLAWYQQKPGKAPKLLIYGASSLQSGVPSRFSGSGSGTDFTLTINSLQPEDFTTYYCQQANIFPWTFGQGTKVEIK
notes: as for B1
B14: 75110_12C19A (antibody, V domains shown)
VH: EVQLVESGGGLVQPGGSLRLSCAASGFTFSSYWMSWVRQAPGKGLEWVANIKEDGSDKYYVDSVKGRFTISRDNAKNSLYLQMNSLRAEDTAVHYCVREGGQWLALDYWGQGTLVTVSS
VL: DIQMTQSPSSVSGSVGDRVTITCRASQGISSWLAWYQQKPGKAPKLLIYGASSLQSGVPSRFSGSGSGTDFTLTISSLQPEDFVTYYCQQANSFPWTFGQGTKVEIK
notes: as for B1
B15: 75110_07H07A (antibody, V domains shown)
VH: EVQVVESGGGLVQPGGSLRLSCAASGFTFSSYWMSWVRQAPGKGLEWVANIKEEGSEKYYVDSVKGRFTISRDNAKNSLYLQMNSLRAEDTAVYYCVREGGQWLALDYWGQGTLVTVSS
VL: DIQMTQSPSSVSGSVGDRVTITCRASQGISSWLAWYQQKPGKAPKLLIFGASSLQSGVPSRFSGSGSGTDFTLTISSLQPEDFATYYCQQANSFPWTFGQGTKVQIK
notes: as for B1
B16: 75110_07N04A (antibody, V domains shown)
VH: QVQLQESGPGLVKPSETLSLTCSVSGVSSTSFYWSWIRQPAGKGLDWIGRIYTSGSTNYNPSLKSRVTMSVDTSKNQFSLKLSSVTAADTAVYYCARDPGYSDAFAIWGQGTMVTVSS
VL: not shown
notes: as for B1
B17: 75110_07J24A (antibody, V domains shown)
VH: QAQLQESGPGLVKPSETLSLTCTVSGGSISSYYYNWIRQPAGKGLEWIGRIYTSGRTDYNPSLKSRVTMSADTSKNQFSLKLSSVTAADTAVYYCARDEGPTDAFDIWGQGTMVTVSS
VL: DIVMTQTPLSLPVTPGEPASISCRSSQSLLDSDDGNTYLDWYLQKPGQSPHLLIYTLSYRASGVPDRFSGSGSGSDFTLKISRVEAEDVGVYYCMQRIEFPFTFGPGTKVDIK
notes: Tested as antibody purified from AlivaMab Mouse Kappa hybridoma (human V regions, kappa light chain, mouse Fc captured by anti-mouse Fc sensors); also called 75110_07124A

For the test, the target named is T1, Recombinant human CD4 (R&D Systems, Cat. 10327-CD) (human, UniProt P01730 26-390, limits assumed).
T1 construct: Bought protein; also called huCD4
Description: BLI (Octet Red384), purified antibody on anti-mouse Fc sensors, human CD4 100/50/25 nM, global 1:1 fit.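 Also: antibodies loaded at 10 µg/mL, curves fitted across association and dissociation phases, with an unrelated mouse-derived antibody serving as internal reference control.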
On to B1, for which the Kd amounted to 8.4 nM, the Response turned out to be 0.22, the koff was found to be 0.0014 s⁻¹ and the kon turned out to be 170000 M⁻¹ s⁻¹.
With B2, the dissociation constant (Kd) stood at 20 nM, the Response came to 0.15, the koff is 0.0035 s⁻¹ and the association rate constant (kon) is 180000 M⁻¹ s⁻¹.
The corresponding values for B3 are 14 nM, 0.1, 0.0022 s⁻¹ and 160000 M⁻¹ s⁻¹.
Regarding B4, the dissociation constant Kd worked out at 6.6 nM, the Response is 0.12, the koff turned out to be 0.00078 s⁻¹ and the kon worked out at 120000 M⁻¹ s⁻¹.
Consider B5, for which the Kd came out at 3.1 nM, the Response stood at 0.2, the dissociation rate constant (koff) is 0.00049 s⁻¹ and the association rate constant (kon) amounted to 160000 M⁻¹ s⁻¹.
Turning to B6, the dissociation constant Kd was determined as 3 nM, the Response was determined as 0.24, the koff worked out at 0.00043 s⁻¹ and the on-rate (kon) stood at 140000 M⁻¹ s⁻¹.
Take B7: the Kd was 3.2 nM, the Response was determined as 0.09, the off-rate (koff) was found to be 0.0013 s⁻¹ and the on-rate constant (kon) is 420000 M⁻¹ s⁻¹.
Turning to B8, the Kd was determined as 1.8 nM, the Response came to 0.22, the koff was found to be 0.00021 s⁻¹ and the on-rate (kon) came to 110000 M⁻¹ s⁻¹.
Taken in the same sequence, the figures for B9 were 11 nM, 0.21, 0.0013 s⁻¹ and 120000 M⁻¹ s⁻¹.
Taken in the same sequence, the figures for B10 were 26 nM, 0.19, 0.0033 s⁻¹ and 120000 M⁻¹ s⁻¹.
Taken in the same sequence, the figures for B11 were 13 nM, 0.25, 0.0022 s⁻¹ and 170000 M⁻¹ s⁻¹.
B12: the equilibrium dissociation constant (Kd) was determined as 53 nM, the Response came to 0.09, the koff amounted to 0.0045 s⁻¹ and the association rate constant (kon) stood at 86000 M⁻¹ s⁻¹.
Taken in the same sequence, the figures for B13 were 48 nM, 0.21, 0.004 s⁻¹ and 85000 M⁻¹ s⁻¹.
The corresponding values for B14 are 5 nM, 0.08, 0.0015 s⁻¹ and 290000 M⁻¹ s⁻¹.
The corresponding values for B15 are 9.4 nM, 0.16, 0.0012 s⁻¹ and 130000 M⁻¹ s⁻¹.
As for B16, the equilibrium dissociation constant (Kd) is less than 0.001 nM, the Response is 0.2, the off-rate (koff) was less than 1e-07 s⁻¹ and the on-rate (kon) was 84000 M⁻¹ s⁻¹.
Turning to B17, the equilibrium dissociation constant (Kd) was determined as 7.1 nM, the Response came out at 0.19, the koff worked out at 0.0006 s⁻¹ and the kon turned out to be 85000 M⁻¹ s⁻¹.
